Data: patent publication US20260184748A1 (University of Pennsylvania, published 2026)
Where no end group is shown, it is not given here.

Tests used:
Assay in all cases: cell-based or functional assay
[1] = biological target: SCTR (UniProt P47872 23-440)
[2] = biological target: T1, EDNRA (UniProt P25101 21-427)
T1 sequence (looked up): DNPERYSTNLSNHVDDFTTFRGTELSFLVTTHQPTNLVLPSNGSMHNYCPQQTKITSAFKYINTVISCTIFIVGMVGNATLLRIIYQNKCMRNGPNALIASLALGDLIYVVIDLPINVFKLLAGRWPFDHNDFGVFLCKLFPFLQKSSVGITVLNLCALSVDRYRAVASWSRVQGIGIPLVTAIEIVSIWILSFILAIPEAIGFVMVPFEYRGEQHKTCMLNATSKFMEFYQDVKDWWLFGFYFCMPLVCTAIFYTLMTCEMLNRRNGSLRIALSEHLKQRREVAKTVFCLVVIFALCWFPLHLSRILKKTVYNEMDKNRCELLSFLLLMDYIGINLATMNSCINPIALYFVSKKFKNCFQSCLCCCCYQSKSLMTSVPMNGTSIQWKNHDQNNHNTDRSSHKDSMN

[3] = biological target: CALCRL-RAMP1 (UniProt Q16602 23-461; O60894 27-148)
[4] = biological target: T2, HTR1A (UniProt P08908 1-422)
T2 sequence (looked up): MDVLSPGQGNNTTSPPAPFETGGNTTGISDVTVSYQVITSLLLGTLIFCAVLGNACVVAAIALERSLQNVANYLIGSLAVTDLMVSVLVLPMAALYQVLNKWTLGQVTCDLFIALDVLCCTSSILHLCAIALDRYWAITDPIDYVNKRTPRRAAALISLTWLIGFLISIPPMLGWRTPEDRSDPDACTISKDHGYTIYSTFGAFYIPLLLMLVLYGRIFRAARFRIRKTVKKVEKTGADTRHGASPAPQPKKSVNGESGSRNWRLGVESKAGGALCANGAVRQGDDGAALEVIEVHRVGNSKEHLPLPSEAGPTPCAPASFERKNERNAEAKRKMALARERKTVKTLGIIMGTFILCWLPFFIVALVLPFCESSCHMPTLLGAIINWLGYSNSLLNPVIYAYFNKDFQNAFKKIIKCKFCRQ

[5] = biological target: T3, CCR7 (UniProt P32248 25-378)
T3 sequence (looked up): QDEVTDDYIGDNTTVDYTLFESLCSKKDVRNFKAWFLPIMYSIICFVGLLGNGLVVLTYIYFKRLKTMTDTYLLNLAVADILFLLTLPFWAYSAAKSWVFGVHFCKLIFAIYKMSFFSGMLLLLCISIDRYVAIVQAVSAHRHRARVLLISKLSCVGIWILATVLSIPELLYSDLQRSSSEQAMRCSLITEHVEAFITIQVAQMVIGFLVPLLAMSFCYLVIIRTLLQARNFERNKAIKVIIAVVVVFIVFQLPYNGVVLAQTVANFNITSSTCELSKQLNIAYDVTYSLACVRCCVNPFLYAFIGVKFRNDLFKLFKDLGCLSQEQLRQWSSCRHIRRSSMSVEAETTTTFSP

[6] = biological target: T4, FPR1 (UniProt P21462 1-350)
T4 sequence (looked up): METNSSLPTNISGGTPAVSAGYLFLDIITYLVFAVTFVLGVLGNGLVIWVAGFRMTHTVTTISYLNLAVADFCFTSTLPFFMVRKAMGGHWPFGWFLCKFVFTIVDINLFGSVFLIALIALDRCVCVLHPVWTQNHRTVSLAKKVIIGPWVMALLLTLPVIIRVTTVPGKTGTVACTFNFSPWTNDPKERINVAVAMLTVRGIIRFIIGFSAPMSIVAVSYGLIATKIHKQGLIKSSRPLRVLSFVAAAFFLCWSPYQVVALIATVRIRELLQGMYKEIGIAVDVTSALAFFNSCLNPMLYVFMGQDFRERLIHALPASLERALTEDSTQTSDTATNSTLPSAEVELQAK

[7] = biological target: T5, GPR103 (UniProt Q96P65 1-431)
T5 sequence (looked up): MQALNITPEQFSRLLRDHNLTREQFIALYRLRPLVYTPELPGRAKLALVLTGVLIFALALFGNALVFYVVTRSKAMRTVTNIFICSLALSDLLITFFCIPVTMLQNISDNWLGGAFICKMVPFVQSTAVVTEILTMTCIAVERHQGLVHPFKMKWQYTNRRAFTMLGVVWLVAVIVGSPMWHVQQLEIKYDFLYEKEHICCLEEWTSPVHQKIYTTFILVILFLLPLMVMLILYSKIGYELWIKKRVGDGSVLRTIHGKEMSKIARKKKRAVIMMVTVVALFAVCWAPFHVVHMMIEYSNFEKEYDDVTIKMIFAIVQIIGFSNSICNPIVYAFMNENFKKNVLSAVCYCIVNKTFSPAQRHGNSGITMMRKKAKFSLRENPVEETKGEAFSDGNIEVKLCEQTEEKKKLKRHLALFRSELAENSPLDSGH

[8] = biological target: P2RY1 (UniProt P47900 1-373)
[9] = biological target: T6, F2RL3 (UniProt Q96RI0 18-385, limits assumed)
T6 sequence (looked up): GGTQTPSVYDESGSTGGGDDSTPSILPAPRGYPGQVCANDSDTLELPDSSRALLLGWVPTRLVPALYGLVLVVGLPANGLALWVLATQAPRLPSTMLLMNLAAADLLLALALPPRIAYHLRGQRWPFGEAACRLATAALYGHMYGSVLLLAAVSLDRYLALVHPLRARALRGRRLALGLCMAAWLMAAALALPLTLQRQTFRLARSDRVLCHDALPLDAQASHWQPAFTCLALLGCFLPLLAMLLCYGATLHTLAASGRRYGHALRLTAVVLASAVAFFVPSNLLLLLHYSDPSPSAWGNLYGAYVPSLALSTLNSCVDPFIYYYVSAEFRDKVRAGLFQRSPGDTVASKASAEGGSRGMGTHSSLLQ

[10] = biological target: MCHR1 (UniProt Q99705 1-353)
Sequence of MCHR1 (Q99705 whole entry): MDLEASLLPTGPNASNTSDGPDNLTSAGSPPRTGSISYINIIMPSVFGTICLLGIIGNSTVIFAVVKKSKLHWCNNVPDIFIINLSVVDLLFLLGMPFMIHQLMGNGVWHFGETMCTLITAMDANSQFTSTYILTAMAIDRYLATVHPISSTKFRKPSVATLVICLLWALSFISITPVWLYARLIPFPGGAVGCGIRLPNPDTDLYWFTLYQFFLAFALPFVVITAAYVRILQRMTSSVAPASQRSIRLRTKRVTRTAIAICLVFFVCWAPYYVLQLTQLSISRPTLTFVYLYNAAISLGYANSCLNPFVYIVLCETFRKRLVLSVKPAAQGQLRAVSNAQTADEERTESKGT

Sequence of P2RY1 (P47900 whole entry): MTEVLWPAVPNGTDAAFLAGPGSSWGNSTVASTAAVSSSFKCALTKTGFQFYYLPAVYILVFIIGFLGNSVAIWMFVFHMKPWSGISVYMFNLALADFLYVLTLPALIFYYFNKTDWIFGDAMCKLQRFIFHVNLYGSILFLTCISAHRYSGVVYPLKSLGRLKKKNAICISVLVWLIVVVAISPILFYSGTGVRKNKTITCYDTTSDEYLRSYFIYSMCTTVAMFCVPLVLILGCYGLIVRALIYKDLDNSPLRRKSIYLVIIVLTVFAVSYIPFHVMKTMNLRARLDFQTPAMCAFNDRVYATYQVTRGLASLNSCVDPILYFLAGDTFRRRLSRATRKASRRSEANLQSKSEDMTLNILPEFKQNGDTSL
Sequence of SCTR (P47872 23-440 limits assumed): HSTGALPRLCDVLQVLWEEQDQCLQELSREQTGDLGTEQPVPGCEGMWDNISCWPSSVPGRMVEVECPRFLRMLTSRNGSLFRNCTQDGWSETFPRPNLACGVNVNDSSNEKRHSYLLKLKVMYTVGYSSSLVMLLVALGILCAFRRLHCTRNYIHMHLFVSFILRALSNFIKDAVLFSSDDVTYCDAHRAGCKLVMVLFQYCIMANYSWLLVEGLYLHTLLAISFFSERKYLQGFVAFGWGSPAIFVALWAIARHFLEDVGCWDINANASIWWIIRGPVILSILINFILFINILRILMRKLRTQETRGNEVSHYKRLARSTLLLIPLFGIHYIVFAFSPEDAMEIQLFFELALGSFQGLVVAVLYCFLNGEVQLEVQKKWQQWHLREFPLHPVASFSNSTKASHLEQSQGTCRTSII
Sequence of CALCRL-RAMP1 (Q16602 23-461 limits assumed, chain 1 of 2): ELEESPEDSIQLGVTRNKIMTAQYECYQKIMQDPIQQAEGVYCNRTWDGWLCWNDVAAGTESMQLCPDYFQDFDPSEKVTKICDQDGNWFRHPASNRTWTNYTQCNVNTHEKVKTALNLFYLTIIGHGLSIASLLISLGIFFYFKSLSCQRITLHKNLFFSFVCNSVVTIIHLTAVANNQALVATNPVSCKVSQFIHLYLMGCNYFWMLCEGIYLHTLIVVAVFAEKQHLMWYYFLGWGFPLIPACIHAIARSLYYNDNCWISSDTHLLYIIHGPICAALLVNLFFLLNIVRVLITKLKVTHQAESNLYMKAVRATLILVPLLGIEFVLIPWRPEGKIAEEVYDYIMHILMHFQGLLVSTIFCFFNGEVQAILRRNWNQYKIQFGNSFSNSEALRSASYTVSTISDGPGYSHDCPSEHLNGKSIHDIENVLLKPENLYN
Sequence of CALCRL-RAMP1 (O60894 27-148 limits assumed, chain 2 of 2): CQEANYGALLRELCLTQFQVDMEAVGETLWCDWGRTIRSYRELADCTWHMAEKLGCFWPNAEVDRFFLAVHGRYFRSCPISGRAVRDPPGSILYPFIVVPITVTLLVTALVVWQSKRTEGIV

QATVGDVNTDRPGLLDLK (also: synthesised on Rink amide resin, C-terminal amide not given here outright) [octadecaneuropeptide (ODN)]
% Activity, arrestin, antagonist mode, 2.5 uM [1]: 7.7%
% Activity, arrestin, antagonist mode, 2.5 uM [2]: 2.5%
% Activity, arrestin, antagonist mode, 2.5 uM [3]: -19%
% Activity, arrestin, antagonist mode, 2.5 uM [4]: -6.2%
% Activity, arrestin, antagonist mode, 2.5 uM [5]: -19.2%
% Activity, arrestin, antagonist mode, 2.5 uM [6]: -11.1%
% Activity, arrestin, antagonist mode, 2.5 uM [7]: 14.6%
% Activity, arrestin, antagonist mode, 2.5 uM [8]: -6.4%
% Activity, arrestin, antagonist mode, 2.5 uM [9]: -25.9%
% Activity, arrestin, antagonist mode, 2.5 uM [10]: 5.1%
